Residue numbers refer to the chain shown, from its start.

We go through three molecules from paper PMC8166883 (2020).

Sequences and labels used below:
B1: FLAG-tagged human vascular endothelial growth factor-A (FLAG-hVEGF-A) (ligand)
chain: APMAEGGGQNHHEVVKFMDVYQRSYCHPIETLVDIFQEYPDEIEYIFKPSCVPLMRCGGCCNDEGLECVPTEESNITMQIMRIKPHQGQHIGEMSFLQHNKCECRPKKDRARQENPCGPCSERRKHLFVQDPQTCKCSCKNTDSRCKARQLELNERTCRCDKPRR
B2: anti-hVEGF-A clone A033AM-19 (affinity-matured from A033) (antibody, V domains shown)
VH: EVELVQSGAEVKKPGSSVKVSCKASGGTFSDYSISWVRQAPGQGLEWMGGIIPIFGTPNYAQKFQGRVTITADESTSTAYMELSSLRSEDTAVYYCADGGAYCGGDCYSGYYYYGMDVWGQGTTVTVSS
VL: QSALTQPASVSGSPGQSITISCTGTSSDVGGYNLVSWYQQHPGKAPKLMIYQDNNKRPSGVSNRFSGSKSGNTASLTISGLQAEDEADYYCSYTNDSNSQVFGGGTKLTVL
B3: anti-hVEGF-A clone A033 (antibody, V domains shown)
VH: B2 VH with D31S, S33A
VL: B2 VL

What all share (assay): SPR
Assay [1] deals with B021.
The target of assay [2] is B015.
Assay [3] deals with B1.

As usually defined, the Kd is a measure of binding affinity in units of concentration. High values mean a looser complex, low ones a tighter complex. In general, koff refers to the rate constant with which the complex falls apart. A high value points to a short-lived complex. B1: in assay [1], the dissociation constant (Kd) was 0.903 nM and the koff came to 0.000577 s⁻¹. In assay [2], this molecule came in with a Kd of 0.0294 nM and a koff of 0.000549 s⁻¹.

In assay [3], B2 had an off-rate constant (koff) of 0.000411 s⁻¹.

B3 came in with a koff in assay [3] of 0.00405 s⁻¹.
